Test results as given in patent US20060257397A1 (CRUCELL HOLLAND B V, published 2006).

What was measured:
human CD1c = target: T1, human CD1c (human, UniProt P29017 18-333); experiment: flow cytometry on C1R-CD1c transfectant
T1 construct: whole, on cells; also called C1R-CD1c; CR1-CD1c
T1 sequence (looked up): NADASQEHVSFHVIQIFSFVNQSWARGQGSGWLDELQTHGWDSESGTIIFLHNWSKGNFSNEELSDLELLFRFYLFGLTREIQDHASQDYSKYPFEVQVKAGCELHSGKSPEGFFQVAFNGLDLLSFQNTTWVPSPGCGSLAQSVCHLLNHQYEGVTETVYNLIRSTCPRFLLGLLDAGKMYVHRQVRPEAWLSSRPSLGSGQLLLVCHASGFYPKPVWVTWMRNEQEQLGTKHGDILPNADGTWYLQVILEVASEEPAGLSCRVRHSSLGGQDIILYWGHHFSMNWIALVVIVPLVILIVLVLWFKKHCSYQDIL
Procedure: (§1) The human anti-CD1a IgG1 antibodies were validated for their ability to bind to CD1a transfected cell lines essentially as described for scFvs (see Example 3). The purified anti-CD1a antibodies were diluted to various concentrations (depicted in the figures) and detected with mouse anti-human IgGκ labeled with FITC or FITC-labeled streptavidin in the case of biotinylated human anti-CD1a antibodies. In addition to the cell lines C1R-CD1a and C1R mock transfected described in Example 3, the cell lines C1R-CD1b , C1R-CD1c , C1R-CD1d and B16-CD1a and B16 mock transfected were tested. Each staining was repeated three times and compared to the negative control irrelevant isotype control antibody called CR2027 using the Kolmogorov-Simov test. To calculate K-S statistics, an overlay of histograms of isotype control antibody and anti-CD1a antibody was made. The log shift between the peaks of the histograms was determined and used to calculate the D-value. The greater the log shift of the anti-CD1a antibody response peak from the isotype control antibody response peak, the larger the D-value.
No specific staining of any of the six human anti-CD1a monoclonal antibodies was detected on the C1R-CD1b or C1R-CD1d transfectants (see FIG. 4). Slight, but significant, staining (p<0.05) was detected for the two antibodies CR2114 and CR2117 on C1R-CD1c transfectants (see FIG. 4). […]

human CD1a [1] = target: T2, human CD1a (human, UniProt P06126 17-327); experiment: flow cytometry on B16-CD1a transfectants, biotinylated antibody detected with FITC-labeled streptavidin; D-value versus isotype control CR2027
T2 construct: whole, on cells; also called C1R-CD1a; CR1-CD1a
T2 sequence (P06126 17-327): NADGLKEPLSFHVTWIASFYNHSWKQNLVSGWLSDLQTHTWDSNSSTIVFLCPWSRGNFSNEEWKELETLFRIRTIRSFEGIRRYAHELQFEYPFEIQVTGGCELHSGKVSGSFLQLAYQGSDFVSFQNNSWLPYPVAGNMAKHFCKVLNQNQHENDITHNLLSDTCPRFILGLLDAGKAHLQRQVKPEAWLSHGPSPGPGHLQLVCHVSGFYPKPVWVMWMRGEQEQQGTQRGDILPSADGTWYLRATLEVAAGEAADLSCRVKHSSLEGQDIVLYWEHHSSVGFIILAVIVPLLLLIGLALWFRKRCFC
Procedure: as §1
(§2) Binding curves were generated for the antibodies CR2113, CR2114, CR2117 and CR2118 by measuring binding on B16-CD1a transfected cells with FACS as above using the concentrations of antibody ranging from 0.01 to 10 μg/ml. […]

murine CD1a = target: T3, murine CD1a (mouse); experiment: flow cytometry on mouse thymocytes, K-S statistics against isotype control
T3 construct: whole, on cells; no such UniProt entry is known to me (mice are known to carry only CD1d genes); also called mouse thymocytes
Procedure: as §1
(§3) No specific staining of any of the six human anti-CD1a monoclonal antibodies was detected on the C1R-CD1b or C1R-CD1d transfectants (see FIG. 4). Slight, but significant, staining (p<0.05) was detected for the two antibodies CR2114 and CR2117 on C1R-CD1c transfectants (see FIG. 4). […] In addition, staining was also carried out on freshly prepared mouse thymocytes, which express murine […] at low levels.

murine CD1d [2] = target: T4, murine CD1d (mouse, UniProt P11609 22-336); experiment: as above
T4 construct: whole, on cells; also called mouse thymocytes
T4 sequence (looked up): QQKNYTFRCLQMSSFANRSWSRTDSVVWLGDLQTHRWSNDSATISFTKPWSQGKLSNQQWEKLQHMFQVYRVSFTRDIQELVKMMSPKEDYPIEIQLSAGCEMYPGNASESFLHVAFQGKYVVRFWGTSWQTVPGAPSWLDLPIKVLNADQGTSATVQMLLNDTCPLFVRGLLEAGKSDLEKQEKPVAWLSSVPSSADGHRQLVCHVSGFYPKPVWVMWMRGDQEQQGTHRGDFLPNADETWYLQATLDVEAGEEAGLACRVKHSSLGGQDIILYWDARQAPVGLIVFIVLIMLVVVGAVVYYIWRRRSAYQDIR
Procedure: as §1, §3

human CD1d = target: T5, human CD1d (human, UniProt P15813 20-335); experiment: flow cytometry on C1R-CD1d transfectant
T5 construct: whole, on cells; also called C1R-CD1d; CR1-CD1d
T5 sequence (looked up): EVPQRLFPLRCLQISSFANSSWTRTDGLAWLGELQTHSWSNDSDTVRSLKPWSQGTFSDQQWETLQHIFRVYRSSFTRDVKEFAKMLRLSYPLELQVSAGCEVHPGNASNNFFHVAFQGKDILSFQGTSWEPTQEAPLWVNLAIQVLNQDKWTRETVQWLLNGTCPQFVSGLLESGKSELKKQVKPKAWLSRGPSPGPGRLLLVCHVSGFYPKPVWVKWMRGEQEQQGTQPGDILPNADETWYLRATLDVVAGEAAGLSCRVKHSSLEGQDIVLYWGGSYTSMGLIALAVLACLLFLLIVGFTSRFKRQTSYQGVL
Procedure: as §1, §3

murine CD1d [3] = target: T4, murine CD1d; experiment: flow cytometry on freshly prepared mouse thymocytes
human CD1b = target: T6, human CD1b (human, UniProt P29016 18-333); experiment: flow cytometry on C1R-CD1b transfectant
T6 construct: whole, on cells; also called C1R-CD1b; CR1-CD1b
T6 sequence (P29016 18-333): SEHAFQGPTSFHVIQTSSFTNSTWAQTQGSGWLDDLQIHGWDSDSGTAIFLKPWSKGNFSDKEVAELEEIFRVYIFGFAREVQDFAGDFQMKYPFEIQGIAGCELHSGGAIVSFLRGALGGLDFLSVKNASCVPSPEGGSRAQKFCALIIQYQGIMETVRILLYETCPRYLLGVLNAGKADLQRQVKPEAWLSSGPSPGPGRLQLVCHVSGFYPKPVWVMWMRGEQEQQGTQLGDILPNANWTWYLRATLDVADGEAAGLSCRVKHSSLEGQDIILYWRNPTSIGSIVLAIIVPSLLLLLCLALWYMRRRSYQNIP
Procedure: as §1, §3

human CD1a [4] = target: T2, human CD1a; experiment: flow cytometry on B16-CD1a transfectants, unlabeled antibody detected with FITC-labeled mouse anti-human IgG kappa; D-value versus isotype control CR2027
Procedure: as §1, §2

human CD1a [5] = target: T2, human CD1a; experiment: competition flow cytometry on B16-CD1a cells: unlabeled antibody for 30 min, then biotin-labeled CR2113 at 2.5 µg/ml, FITC-streptavidin
Procedure: (§4) B16 mouse melanoma cells expressing human CD1a were stained with unlabeled CR2113, CR2114, CR2117, CR2118 or the negative control CR2027 at different concentrations (0.1, 0.3, 1, 3, 10, 30, 50, 100 μg/ml) for 30 minutes and then stained with one of the above antibodies labeled with biotin as described above for five minutes at a concentration of 2.5 μg/ml. Detection was by FITC-labeled streptavidin incubated for 20 minutes. Furthermore, staining was performed as described above (see Example 3). Each staining was done three successive times and the D-value calculated with K-S statistics (see above). The staining of unlabeled control antibody CR2027 is shown by the dotted line staining using the test antibody is depicted with a solid line. CR2113 was able to compete with itself in a dose dependent manner, however none of the other antibodies could compete with biotinylated CR2113 for binding (see FIG. 6A). […] In contrast, unlabeled CR2113 was able to compete for binding of CR2114 (see FIG. 6B), CR2117 (see FIG. 6C) and CR2118 (see FIG. 6D) to B16-CD1a transfectants in a concentration dependent manner. Neither CR2117 nor CR2118 was able to compete with CR2114 for binding to CD1a. This could be due to sub-optimal affinity.

human CD1a [6] = target: T2, human CD1a; experiment: competition flow cytometry on B16-CD1a cells: unlabeled antibody for 30 min, then biotin-labeled CR2118 at 2.5 µg/ml, FITC-streptavidin
Procedure: as §4

human CD1a [7] = target: T2, human CD1a; experiment: competition flow cytometry on B16-CD1a cells: unlabeled antibody for 30 min, then biotin-labeled CR2114 at 2.5 µg/ml, FITC-streptavidin
Procedure: as §4

B1: human anti-human CD1a monoclonal antibody CR2117 (antibody, human IgG1, kappa, V domains shown)
VH: EVQLVESGGGLVHPGGSLRLSCAGSGFTFSSYAMHWVRQAPGKGLEWVSAIGTGGGTYYADSVKGRFTISRDNAKNSLYLQMNSLRAEDTAVYYCARSTPWFSFDYWGQGTLVTVSS
VL: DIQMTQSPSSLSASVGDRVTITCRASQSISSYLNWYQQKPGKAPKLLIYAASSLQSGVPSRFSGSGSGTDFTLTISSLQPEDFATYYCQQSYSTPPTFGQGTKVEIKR
notes: Fully human IgG1 kappa made from scFv SC02-117; unlabeled or biotinylated; also called 02-117
binding result (human CD1c): binds
EC50 (read off the curve) (human CD1a [1]): ~2 microgr/ml
D-value (murine CD1a): 0
D-value (murine CD1d [2]): 0
binding result (human CD1d): no binding
binding result (murine CD1d [3]): no binding
binding result (human CD1b): no binding

B2: human anti-human CD1a monoclonal antibody CR2118 (antibody, human IgG1, kappa, V domains shown)
VH: EVQLVESGGGLVHPGGSLRLSCAGSGFTFSSYAMHWVRQAPGKGLEWVSAISTGGGTYYADSVKGRFTISRDNAKNSLYLQMNSLRAEDTAVYYCARSAWWLSFDSWGQGTLVTVSS
VL: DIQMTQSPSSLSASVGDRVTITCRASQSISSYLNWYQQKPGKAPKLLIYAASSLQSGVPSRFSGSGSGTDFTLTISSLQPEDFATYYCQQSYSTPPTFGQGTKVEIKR
notes: Fully human IgG1 kappa made from scFv SC02-118; unlabeled or biotinylated; also called 02-118
D-value (murine CD1a): 0
D-value (murine CD1d [2]): 0
binding result (human CD1a [4]): binds
binding result (human CD1d): no binding
binding result (murine CD1d [3]): no binding
binding result (human CD1b): no binding

B3: human anti-human CD1a monoclonal antibody CR2114 (antibody, human IgG1, kappa, V domains shown)
VH: EVQLVESGGGLVQPGGSLRLSCAASGFTFSSYSMNWVRQAPGKGLEWVSYISSSSSTIYYADSVKGRFTISRDNAKNSLYLQMNSLRDEDTAVYYCAKETWWQSFDYWGQGTLVTVSS
VL: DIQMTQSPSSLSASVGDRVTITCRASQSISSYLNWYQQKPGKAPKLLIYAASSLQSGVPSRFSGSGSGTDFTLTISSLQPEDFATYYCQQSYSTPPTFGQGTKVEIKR
notes: Fully human IgG1 kappa made from scFv SC02-114; unlabeled or biotinylated; also called 02-114
binding result (human CD1c): binds
D-value (murine CD1a): 0
D-value (murine CD1d [2]): 0
binding result (human CD1d): no binding
binding result (murine CD1d [3]): no binding
binding result (human CD1b): no binding

B4: human anti-human CD1a monoclonal antibody CR2115 (antibody, human IgG1, V domains shown)
VH: QVQLVQSGAEAKKPGASVKVSCKASGYTFTGYYMHWVRQAPGQGLEWMGWISAYNGNTNYAQKLQGRVTMTTDTSTSTAYMELRSLRSDDTAVYYCARSQMPSYFDYWGQGTLVTVSS
VL: SSELTQDPAVSVALGQTVRITCQGDSLRSYYASWYQQKPGQAPVLVIYGKNNRPSGIPDRFSGSSSGNTASLTITGAQAEDEADYYCNSRDSSGNHVVFGGGTKLTVLG
notes: Fully human IgG1 lambda made from scFv SC02-115; also called 02-115
D-value (murine CD1d [2]): 0
binding result (human CD1d): no binding
binding result (murine CD1d [3]): no binding
binding result (human CD1b): no binding

B5: human anti-human CD1a monoclonal antibody CR2113 (antibody, human IgG1, kappa, V domains shown)
VH: QVQLQESGAGLLKPSETLSLTCAVYGGSFSGYYWSWIRQPPGKGLEWIGYIYYSGSTNYNPSLKSRVTISVDTSKNQFSLKLSSVTAADTAVYYCAKAPYMMYFDSWGQGTLVTVSS
VL: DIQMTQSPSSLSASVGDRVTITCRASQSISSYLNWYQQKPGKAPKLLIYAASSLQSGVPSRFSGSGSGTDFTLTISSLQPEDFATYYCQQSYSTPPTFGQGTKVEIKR
notes: Fully human IgG1 kappa made from scFv SC02-113, expressed in 293T cells; Used unlabeled, biotinylated or Alexa488-labeled depending on the assay; also called 02-113
IC50 (read off the curve) (human CD1a [5]): ~3 mg/L
IC50 (read off the curve) (human CD1a [6]): ~0.6 mg/L
EC50 (read off the curve) (human CD1a [1]): ~0.1 microgr/ml
D-value (murine CD1a): 0
D-value (murine CD1d [2]): 0
binding result (human CD1d): no binding
IC50 (read off the curve) (human CD1a [7]): ~0.5 mg/L
binding result (murine CD1d [3]): no binding
binding result (human CD1b): no binding
